Reference: EP4647443A1 (Max-Planck-Gesellschaft zur Förderung der Wissenschaften …, dated 2025)
Changes are numbered by the printed parent chain.

B1: Bm29B04 (VHH)
VHH: QVQLVESGGGLVQAGGSLRLSCAASGFTFDDYVIGWFRQAPGKEREAVACISNGDGVANVPNSMKGRFTISSDSAKNTVHLRADSLKADDTGVYYCAAVKERLCVHEGMEYWGKGTQVTVSS
B2: Bm29B05 (VHH)
VHH: QVQLVESGGGLVQAGGSLRLSCAASGFTFDDYVIGWFRQAPGKEREAVACISNGDGVTNYPNSMRGRFTISSDSAKNTVYLQTDSLKPDDTGVYYCATAKERLCVQGGMEYWGKGTLVTVSS
B3: Bm31B04 (VHH)
VHH: QVQLVESGGGLVQPGGSLRLSCAASGSSFSIYGMSWYRQAPGNQRELVALINVGDWTTYADSVKGRFTISRDSAKNTVYLQMNSLKPEDTAVYYCKADLSVSGSSFIRTYWGQGTQVTVSS
B4: Bm31G04 (VHH)
VHH: QVQLVESGGGLVQPGGSLRLSCAASGITFTFYDMGWYRQAPGKQRELVATISISSSTTYADSVKGRFTISRDNAKNTVYLQMNSLKPEDTAVYYCNAQHVDSDYLAGYDYFGQGTQVTVSS
B5: Bm31D04 (VHH)
VHH: B4 VHH with T28I, T30D, T50G, S55G, V78I, Q98H, A106R
B6: Bm31G03 (VHH)
VHH: B4 VHH with P14A, T28I, T30S, L47V, S55G, S56R, N73D, Y94I
B7: Bm29C02 (VHH)
VHH: QVQLVESGGGLVQPGGSLRLSCTASGFTLDDWAIGWFRQAPGKEREGVSCTSSRERSSYYRDSVKGRFTISRDSTSNTVYLQMNELTLEDTAVYYCAADPQPYPCSLGQLGRYTTWGQGTQVTVSS
notes: also called anti-HlgB VHH Bm29C02
B8: Bm31A04 (VHH)
VHH: QVQLVQSGGGLVQPGGSLRLSCAASESISNIYVMGWFRQAPGKQRELVAAITSSNNTNYADSVKGRFTISRDNAKNTVYLQMNSLKPEDTAVYYCNADWGLGGYSDYGEYDYWGQGTQVTVSS
B9: Bm31A09 (VHH)
VHH: QVQLVQSGGGLVQAGGSLRLSCAASGSTGSIYVMGWFRQAPGKQRELVASITRGEGSANYADSVKGRFTISRDNAKNTLYLQMNSLKPEDTAVYYCHADTGLGDYSDYAPHGYKYDYWGQGTQVTVSS
B10: Bm31D02 (VHH)
VHH: B9 VHH with Q6E
B11: Bm31A08 (VHH)
VHH: QVQLVESGGGLAQPGGSLTLSCAASGVVWSKYVMSWVRQVPEKGFEWVSGIKSDGSDTYYADSVKGRFTVSGDLAKKTVYLQLNSLKPEDTALYYCVLEYGTSWPPRVEEYDYWGQGTQVTVSS
B12: Bm32B07 (VHH)
VHH: QVQLVESGGGLVQTGGSLRLSCATSGRISSIYAMPWFRQAPGKEREFVAAISWHTDLAYYADSVKGRFTISKDNAKNTVYLQMNSLKPEDTAVYYCNIPSKEEYDRNYYYPTGGSWGQGTQVTVSS
B13: Bm32D01 (VHH)
VHH: B12 VHH with A58T, G66D, N77A, S85N, K87Q, I98V, E103Q, N107T, Y108S
B14: Bm32A03 (VHH)
VHH: B12 VHH with G10A, A23V, R27S, D56N, N84D, V93T, I98V, N107T, Y108S
B15: Bm29H04 (VHH)
VHH: QVQLVESGGGLVQPGGSLRLSCTASGVSLDDFAIGWFRQAPGKEREGVSCSSSRDRSEYYRDSVKGRFTISRDSQKNTVDLQMNSLTIEDTAVYYCAADPQPYPCSVGSLDRYNSWGQGTLVTVSS
B16: Bm29E06 (VHH)
VHH: QVQLVESGGGLVQPGGSLRLSCTASGVSLYDFAVGWFRQAPGKEREGVSCSSSRDRSEYYRDSVKGRFDIVRDNLKNIIYLQMDNLTIEDTAVYFCAADSQPYPCSLGSLERYDSWGQGTQVTVSS
B17: Bm29F05 (VHH)
VHH: B16 VHH with F37W, S51T, D69T, I78T, N85S, T120I
B18: Bm32A08 (VHH)
VHH: QVQLVESGGGLVQAGGSLRVSCAASGDWFIINSMAWFRQAPGKQREQVATISHGGIPRYADSVKGRFTISRDNSKGAVYLQMNNLKSDDTAMYVCAAGGLDYGFPDPTPEEFDYWGRGTQVTVSS
B19: Bm32F03 (VHH)
VHH: B18 VHH with N73D, G76D
B20: Bm31F09 (VHH)
VHH: QVQLVESGGALVQPGGSLRLSCAASGFTFDDYVMSWVRQAPGTGLEWVSSIHTASSDTYYADSVKDRFTISTDNAKNTLYLQMNSLKPEDTAVYYCAADKAPLTIATMTRDEYDYWGQGTQVTVSS
B21: Bm31G12 (VHH)
VHH: QVQLVESGGGLVQPGGSLRLSCAAAGFTVDDYVMSWVRQVPGKGREWVSSIHSYSSDTYYADSVKGRFTISTDNAKNTLYLQMNSLKPEDTAVYYCAADKDPLTIATMTRYEYDYWGQGTQVTVSS
B22: Bm29D07 (VHH)
VHH: QVQLVESGGGLVQPGGSLRLSCTASSIIVSYYAIGWFRQAPGKGREGVSRITVPAGNLYYADSVKGRFSITRDDVKNTVYLQMNSFQVEDTATYYCAVSYGDSWVDPSYVDHWGQGIQVTVSS

Tests used:
[1] = target: T1, S. aureus gamma-hemolysin component B (HlgB) (Staphylococcus aureus, UniProt P0A075 27-325); experiment: BLI, biotinylated VHH on streptavidin sensor, HlgB in solution
T1 sequence: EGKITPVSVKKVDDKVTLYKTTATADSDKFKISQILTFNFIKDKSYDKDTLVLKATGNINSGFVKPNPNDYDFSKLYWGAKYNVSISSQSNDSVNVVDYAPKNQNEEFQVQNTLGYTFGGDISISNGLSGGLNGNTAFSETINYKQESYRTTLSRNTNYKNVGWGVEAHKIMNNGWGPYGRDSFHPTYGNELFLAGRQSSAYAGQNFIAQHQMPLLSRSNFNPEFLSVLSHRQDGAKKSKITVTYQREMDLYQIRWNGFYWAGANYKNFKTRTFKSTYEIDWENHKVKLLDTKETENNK

[2] = target: T2, S. aureus gamma-hemolysin component A (HlgA) (Staphylococcus aureus, UniProt P0A071 30-309); experiment: BLI, biotinylated VHH on streptavidin sensor, HlgA in solution
T2 sequence: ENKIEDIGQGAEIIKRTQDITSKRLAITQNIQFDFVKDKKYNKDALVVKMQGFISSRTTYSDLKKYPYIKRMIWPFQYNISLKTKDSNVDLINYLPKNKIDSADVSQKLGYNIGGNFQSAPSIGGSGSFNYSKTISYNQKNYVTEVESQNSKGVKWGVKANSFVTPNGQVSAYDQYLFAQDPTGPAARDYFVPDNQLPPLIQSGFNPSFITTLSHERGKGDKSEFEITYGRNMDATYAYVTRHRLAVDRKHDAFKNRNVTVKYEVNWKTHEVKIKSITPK

[3] = target: T3, S. aureus gamma-hemolysin component C (HlgC) (Staphylococcus aureus, UniProt Q07227 30-315); experiment: BLI, biotinylated VHH on streptavidin sensor, HlgC in solution
T3 sequence: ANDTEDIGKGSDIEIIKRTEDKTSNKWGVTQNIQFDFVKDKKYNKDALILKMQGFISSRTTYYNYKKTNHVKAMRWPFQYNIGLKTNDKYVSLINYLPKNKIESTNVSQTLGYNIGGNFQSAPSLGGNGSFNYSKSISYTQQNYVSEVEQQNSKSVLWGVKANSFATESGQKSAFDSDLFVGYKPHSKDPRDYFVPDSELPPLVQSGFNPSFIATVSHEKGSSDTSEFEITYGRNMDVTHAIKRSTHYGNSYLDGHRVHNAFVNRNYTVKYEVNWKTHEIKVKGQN

Binder | Kd [1] [nM] | Kd [2] [nM] | other results
B1 | ≤ 0.01 | – | –
B2 | ≤ 0.01 | – | –
B3 | – | ≤ 0.01 | –
B4 | – | 0.025 | –
B5 | – | 0.05 | –
B6 | – | 0.015 | –
B7 | 0.01 | – | –
B8 | – | 0.06 | –
B9 | – | 0.05 | –
B10 | – | 0.07 | –
B11 | – | ≤ 0.01 | –
B12 | – | – | Kd [3]: 0.045 nM
B13 | – | – | Kd [3]: 0.03 nM
B14 | – | – | Kd [3]: 0.025 nM
B15 | 0.06 | – | –
B16 | 0.03 | – | –
B17 | 0.02 | – | –
B18 | – | – | Kd [3]: 0.045 nM
B19 | – | – | Kd [3]: 0.85 nM
B20 | – | 0.09 | –
B21 | – | 0.025 | –
B22 | ≤ 0.01 | – | –
